Data on two proteins can be found in patent US20050053994.

For this data set, the target named is actin.

B1: human LS-DNase (protein)
chain: MRICSFNVRSFGESKQEDKNAMDVIVKVIKRCDIILVMEIKDSNNRICPILMEKLNRNSRRGITYNYVISSRLGRNTYKEQYAFLYKEKLVSVKRSYHYHDYQDGDADVFSREPFVVWFQSPHTAVKDFVIIPLHTTPETSVKEIDELVEVYTDVKHRWKAENFIFMGDFNAGCSYVPKKAWKNIRLRTDPRFVWLIGDQEDTTVKKSTNCAYDRIVLRGQEIVSSVVPKSNSVFDFQKAYKLTEEEALDVSDHFPVEFKLQSSRAFTNSKKSVTLRKKTKSKRS
As for B1, the “DNA-hydrolytic activity in plasmid nicking assay (supercoiled pBR322, agarose gel)” value was “the DNA-hydrolytic activity of LS-DNase was not inhibited by concentrations of actin that fully inhibited human DNase I”.

B2: human DNase I (protein)
chain: LKIAAFNIQTFGETKMSNATLVSYIVQILSRYDIALVQEVRDSHLTAVGKLLDNLNQDAPDTYHYVVSEPLGRNSYKERYLFVYRPDQVSAVDSYYYDDGCEPCGNDTFNREPAIVRFFSRFTEVREFAIVPLHAAPGDAVAEIDALYDVYLDVQEKWGLEDVMLMGDFNAGCSYVRPSQWSSIRLWTSPTFQWLIPDSADTTATPTHCAYDRIVVAGMLLRGAVVPDSALPFNFQAAYGLSDQLAQAISDHYPVEVMLK
Consider B2, for which the “DNA-hydrolytic activity in plasmid nicking assay (supercoiled pBR322, agarose gel)” value is reported as “the DNA-hydrolytic activity of human DNase I was inhibited by added actin in a concentration-dependent manner”.
